EP4265717A1

Key:
[1] = target: mobilized colistin resistance (MCR)-1 protein; assay: indirect ELISA, plate coated with 0.2 ug/mL MCR-1 protein, purified antibody in doubling dilutions; settings: scale: reciprocal dilution
[2] = target: mobilized colistin resistance (MCR)-2 protein; assay: indirect ELISA, plate coated with 0.2 ug/mL MCR-2 protein, purified antibody in doubling dilutions; settings: scale: reciprocal dilution

Row | Binder | titer [1] | titer [2]
1 | anti-MCR-1/MCR-2 protein mouse mAb 2DG5 (antibody, V domains shown) VH: VKLQESGPGLVKPSQSLSLTCTVTGYSITSDYAWNWIRQFPGNKLEWMGQISDSAVTTYNPSLKSRISINRDTSKNQFFLQLNSVTPEDTATYYCARRNFYGYNFFDYWGRGTSLTVSS VL: DIQMTQTTSSLSASLGDRVTINCRASQDINNYLNWYQQKPDGTVKLLIYYTSRLHSGVPSRFSGSGSRTDYSLTISNLEREDIATYFCQQGKTIHPWTFGGGTKLDIKR | > 1.28e+06 | > 1.28e+06
2 | anti-MCR-1/MCR-2 protein mouse mAb 1IB10 (antibody, V domains shown) VH: VKLQQSGPELVKPGASVKMSCRASGYTFTSYVMHWVKQKPGQGLEWIGYFNPYNDGANYNEKFKGKATLSSDKSSGTAYMDLSSLTSEDSAVYYCARGPYGNYAMDYWGQGTSVTVSS VL: DVLMTQTPLSLPVSLGDQASISCRSSQNIVCSYGNPCLEWYLQKPGQSPKLLIYKVSNRFSGVPDRFSGSGSGTDFTLKISRVEAEDLGVYYCFQSSHVPWTFGGGTELEIKR | > 1.28e+06 | > 1.28e+06
